Experimental data published in the Human Domainome abundance scans (Beltran et al. 2025).

B1: TGF-beta-activated kinase 1 and MAP3K7-binding protein 3, residues 12 to 50; numbered along this chain, Q8N5C8 (parent)
chain: VLHDLRQRFPEIPEGVVSQCMLQNNNNLEACCRALSQES

Variants of: B1
Test: abundance fitness (aPCA) (normalised: wild type 0, dead -1); higher = more abundant; growth selection in yeast, the domain comes from the species named
Settings: Homo sapiens

Abundance fitness of substitutions, site by site:
L22: Y -0.213; V 0.012; M 0.041; W -0.292; A 0.173; Q 0.057; G -0.266; H 0.023; K 0.264; F -0.188; C -0.377; E 0.164; T 0.026; S -0.045; D -0.06; R 0.152
N27: P -0.856; H -0.605; V -0.764; R -0.607; L -1.12; K -0.651; G -0.78; A -0.643; W -0.835; T -1.01; Q -0.398; C -0.831; S -0.478
M21: P -0.68; Y -0.189; S -0.718; D -0.691; Q -0.937; F -0.487; T -1.17; H -0.82; L -0.015; R -0.872; V -0.349; G -0.811; E -0.695; W -0.732; A -0.347
V17: T -1.07; Y -0.811
N25: W -0.819; Q -0.306; D -0.015; M -0.548; C -0.5; R -0.39; S -0.365; P -0.615; V -0.904; T -0.788; G -0.108; A -0.425
C20: Y 0.007; G -0.26; P -0.51; S -0.103; Q -0.175; M 0.028; L -0.06; I 0.109; A 0.173; D 0.048; R -0.405; W -0.37; F -0.096; T 0.063; E -0.082; H -0.576
Q19: P -0.547; E 0.128; R 0.135; A 0.186; I 0.384; C -0.114; Y -0.345; W -0.135; L -0.1; K 0.139; S -0.039; T -0.077; M -0.004; V -0.273; N -0.019; H -0.175
E29: L -0.201
N24: G -0.878; R -1.08; M -0.679; P -0.989; Q -0.623; L -0.73; A -0.747; W -0.638; C -0.351; E -0.329; K -0.843; S -0.848; T -0.871; V -0.894; H 0.178
S18: I -0.035; R 0.345; T 0.136; L 0.23; K 0.278; H 0.177; Y -0.196; E 0.191; F -0.17; P -0.939; Q 0.268; M 0.222; D -0.434; A 0.13; C -0.336; V 0.218; G -0.399
Q23: N -0.046; S -0.206; A 0.107; K -0.189; M -0.105; V -0.167; D 0.271; G -0.722; R -0.06; I -0.649; P -0.787; H 0.168; T -0.275; E 0.215; L -0.108
N26: K -0.799; E -0.475; L -0.685; D -0.435; P -1.32; F 0.164; M -0.317; R -0.746; A -0.498; S -0.289; C -0.365; G -0.144; V -0.816; H -0.316; W -0.808
L28: A -0.484; W 0.007; R -0.437; S -0.629; P -0.313; G -0.605; Q -0.527; T -0.684; E -0.471; M -0.262; V -0.221; D -0.829; C -0.587; H -0.285
